Where two headings read alike, the source gives them in different places.
Assays:
marrow stromal cells = experiment: Osteoinductive properties (osteoblast differentiation markers: ALP activity, osteocalcin mRNA, mineralization); format: cell-based; details: induction of osteoblast differentiation markers
Source text: Oxysterols discussed in this application include those designated as Oxy22, Oxy26, Oxy27, Oxy28, Oxy39, Oxy40, Oxy41, Oxy42, Oxy48, Oxy49, Oxy20, Oxy34, Oxy36, Oxy38, Oxy50, Oxy51, Oxy52, and Oxy53. At least the following oxysterols have been identified as osteoinductive: Oxy22, Oxy26, Oxy27, Oxy28, Oxy39, Oxy40, Oxy41, Oxy42, Oxy48, Oxy49, Oxy50, Oxy51, Oxy52, and Oxy53. The osteoinductive properties of these oxysterols is shown by their ability to induce the expression of various osteoblast differentiation markers, including alkaline phosphatase activity, osteocalcin mRNA expression, and mineralization. These oxysterols are activators of the hedgehog signaling pathway.

[1] = system: bone sialoprotein (BSP) mRNA expression; experiment: Q-RT-PCR for bone sialoprotein (BSP) mRNA expression; format: cell-based; details: M2-10B4 cells
Description: (§1) Total RNA was extracted with the RNA isolation kit from Stratagene (La Jolla, Calif.) according to the manufacturer's instructions. RNA was DNase-treated using the DNA-free kit from Ambion, Inc. (Austin, Tex.). 3 μg of RNA was reverse-transcribed using reverse transcriptase from Stratagene (La Jolla, Calif.) to make single stranded cDNA. The cDNAs were mixed with Qi SYBR Green Supermix from Bio-Rad Laboratories (Hercules, Calif.) for quantitative RT-PCR using a Bio-Rad I-cycler IQ quantitative thermocycler. All PCR samples were prepared in triplicate or quadruplicate. Each sample was added to duplicate wells of a 96-well plate. After 40 cycles of PCR, melt curves were analyzed in order to ensure primer specificity, and the identity of all PCR products were verified by sequencing and comparing with the complete mRNA sequence obtained from PubMed's GenBank. Fold changes in gene expression were calculated using the ΔΔCt method (14). […]
M2-10B4 cells were treated with control vehicle (C) or various doses (μM) of oxysterols (Oxy34 or Oxy49) as indicated. […] After 6 days of treatments, mRNA was extracted from cells and analyzed by Q-RT-PCR for BSP and GAPDH expression (See FIG. 17).
After 48 hours of treatment, RNA was isolated and analyzed for BSP expression by Q-RT-PCR as a measure of osteogenic differentiation (See FIG. 10). […]

[2] = system: M2-10B4 marrow stromal cells; experiment: 45Ca incorporation assay (matrix mineralization); format: cell-based
Description: ^45Ca incorporation assay as a measure of matrix mineralization in cell monolayers was performed as previously described (45).
^45Ca incorporation assay (see Example above) was used to measure mineralization in M2 cells pre-treated with 1 μg/ml Dkk-1 or vehicle for 2 h, and then treated with control vehicle or 2.5 μM SS 12 days (See FIG. 2D).
^45Ca incorporation assay was used to measure mineralization in M2 cells pre-treated with various doses of LY, 1 μM Wm, or vehicle for 2 h, and then treated with 5 μM SS or control vehicle for 14 days (See FIG. 7C).
M2-10B4 cells were treated for 14 days with control vehicle (C) or various concentrations (μM) of oxysterols as indicated. SS refers to 20S-hydroxycholesterol+22S-hydroxycholesterol in combination. After 12 days with refeeding every 5th day, ^45Ca was added and on day 14, ^45Ca incorporation was measured (See FIG. 18).

[3] = system: M2-10B4 marrow stromal cells; experiment: Alkaline phosphatase (ALP) activity assay
Description: The protocol is a modification of alkaline phosphatase assay kit from Sigma. Cells are cultured in 24-well tissue culture plates. After treatments with test agents, cells are rinsed twice with PBS and scraped into 200 ml of lysis buffer (0.2% NP-40 in 1 mM MgCl2) and sonicated for 10 seconds. Next, 1 ml of reaction mixture is added to each well. Reaction mixture is 221 alkaline buffer (Sigma): stock substrate solution (1:1). Stock substrate solution is prepared by dissolving 40 mg of Sigma 104 phosphatase substrate in 10 ml of ddH2O. After addition of reaction mixture to lysed cells, incubation is performed for 30 minutes at 37 C. […] The reaction is stopped by the addition of 12 ml of 1N NaOH to each well, and absorbance is determined at 405 nm. Alkaline phosphatase activity is calculated using p-nitrophenol as a standard, according to Sigma kit's instructions. Results are normalized to total protein in each well determined using the Bio-Rad protein assay solution (Bio-Rad Laboratories).
M2-10B4 marrow stromal cells were treated with oxysterols at various doses for 3 days after which they were collected and analyzed by calorimetric assay for alkaline phosphatase activity (a marker of osteoblastic differentiation) (Table 1); the alkaline phosphatase assay described above was used.
M2-10B4 marrow stromal cells were treated with oxysterols at various doses for 3 days after which they were collected and analyzed by colorimetric assay for alkaline phosphatase activity (a marker of osteoblastic differentiation) (Table 2); the alkaline phosphatase assay described above was used.
M2-10B4 bone marrow stromal cells were treated in culture with control vehicle (C) or various oxysterol (Oxy) molecules as indicated at either 1.25 (1) or 2.5 (2) μM concentrations. After 3 days of treatment, alkaline phosphatase activity as a measure of early osteogenic differentiation of cells was measured in whole cell lysates (See FIG. 9 and Table 3); the alkaline phosphatase assay described above was used.

[4] = system: hedgehog signaling pathway; experiment: Hedgehog signaling pathway activation (8X-Gli reporter, Gli 1 and Patched Q-RT-PCR, cyclopamine inhibition); format: cell-based; details: M2 cells
Description: M2-10B4 bone marrow stromal cells were transfected with an 8XGli luciferase reporter or the empty vector (pGL3b). Cells were subsequently treated with control vehicle, 5 μM Oxy49, or 400 ng/ml recombinant human sonic hedgehog (Shh) as positive control. After 48 hours of treatments, reporter luciferase activity was measured and normalized to Renilla luciferase activity (See FIG. 14). […] M2-10B4 bone marrow stromal cells were transfected with an 8XGli luciferase reporter or the empty vector (pGL3b). Cells were subsequently treated with control vehicle, 5 μM Oxy34, or 400 ng/ml recombinant human sonic hedgehog (Shh) as positive control. After 48 hours of treatments, reporter luciferase activity was measured and normalized to Renilla luciferase activity (See FIG. 15). […] After 48 hours of treatments, mRNA was extracted from cells and analyzed by Q-RT-PCR for expression of hedgehog target genes Gli 1 and Patched (See FIGS. 16A and 16B). […] Luciferase reporter activity using a reporter construct with 8X-Gli binding sites • 2. Q-RT-PCR analysis of the induction of hedgehog pathway target gene expression Gli 1 and Patched • 3.

[5] = system: Patched (Ptch) mRNA expression; experiment: Q-RT-PCR for Patched (Ptch) mRNA expression; format: cell-based; details: M2 cells pre-treated 2 h with inhibitor, then 5 μM SS for 48 h
Description: as §1, with “(14). All primers were designed using the Beacon Designer software from Bio-Rad Laboratories (Hercules, Calif.).” for “(14).”
M2 cells were pre-treated for 2 h with Dkk-1 or vehicle. […] RNA was isolated and analyzed for Nkd2 (C), Wif-1 (D), and Ptch (E) expression (See FIGS. 5C-5E).

[6] = system: osteocalcin (OCN) mRNA expression; experiment: Q-RT-PCR for osteocalcin (OCN) mRNA expression; format: cell-based; details: M2 cells pre-treated 2 h with inhibitor, then SS
Description: as §1, with “(14). All primers were designed using the Beacon Designer software from Bio-Rad Laboratories (Hercules, Calif.).” for “(14).”
M2 cells were pre-treated with vehicle or 1 μg/ml Dkk-1 for 2 h followed by treatment with control vehicle or 5 μM SS for 6 days. RNA was isolated and analyzed by Q-RT-PCR for OCN expression (See FIG. 2E).
RNA was analyzed for OCN expression by Q-RT-PCR and normalized to GAPDH (p<0.01 for Control versus SS and for SS versus SS+LY and SS+Wm) (See FIG. 7B).

[7] = system: Runx2 DNA binding activity; experiment: Runx2 DNA binding activity by EMSA analysis; format: cell-based; details: M2 cells
[8] = system: Wnt Inhibitory factor-1 (Wif-1) mRNA expression; format: cell-based; details: M2 cells pre-treated 2 h with inhibitor, then 5 μM SS for 48 h
Description: (§2) Total RNA was extracted with the RNA isolation kit from Stratagene (La Jolla, Calif.) according to the manufacturer's instructions. RNA was DNase-treated using the DNA-free kit from Ambion, Inc. (Austin, Tex.). 3 μg of RNA was reverse-transcribed using reverse transcriptase from Stratagene (La Jolla, Calif.) to make single stranded cDNA. The cDNAs were mixed with Qi SYBR Green Supermix from Bio-Rad Laboratories (Hercules, Calif.) for quantitative RT-PCR using a Bio-Rad I-cycler IQ quantitative thermocycler. All PCR samples were prepared in triplicate or quadruplicate. Each sample was added to duplicate wells of a 96-well plate. After 40 cycles of PCR, melt curves were analyzed in order to ensure primer specificity, and the identity of all PCR products were verified by sequencing and comparing with the complete mRNA sequence obtained from PubMed's GenBank. Fold changes in gene expression were calculated using the ΔΔCt method (14). All primers were designed using the Beacon Designer software from Bio-Rad Laboratories (Hercules, Calif.). Primers used are as follows: OCN (5′-[…]-3′ (SEQ ID NO: 1) and 5′-[…]-3′ (SEQ ID NO: 2)), Axin2(5′[…]-3′ (SEQ ID NO: 3) and 5′-[…]-3′ (SEQ ID NO: 4)), Cyclin D1(5′-[…]-3′ (SEQ ID NO: 5) and 5′-[…]-3′ (SEQ ID NO: 6)), NKD2 (5′-[…]-3′ (SEQ ID NO: 7) and 5′[…]-3′ (SEQ ID NO: 8)), WIF-1 (5′-[…]-3′ (SEQ ID NO: 9) and 5′-[…]-3′ (SEQ ID NO: 10)), and GAPDH (5′-[…]-3′ (SEQ ID NO: 11) and 5′-[…]-3′ (SEQ ID NO: 12)).
(§3) M2 cells were treated with 5 μM SS, 200 ng/ml Shh, or control vehicle for 48 h. RNA was isolated and analyzed by Q-RT-PCR for Nkd2 (E) and WIF-1 (F) expression (See FIGS. 4E and 4F).
(§4) M2 cells were pre-treated for 2 h with vehicle or cyclopamine (Cyc) at the concentrations indicated. Next, cells were treated with 5 μM SS or control vehicle for 48 h. RNA was isolated and analyzed for Nkd2 (A) and WIF-1 (B) expression by Q-RT-PCR (See FIGS. 5A and 5B).
(§5) M2 cells were pre-treated for 2 h with Dkk-1 or vehicle. Next, cells were treated with 5 μM SS or control vehicle for 48 h. RNA was isolated and analyzed for Nkd2 (C), Wif-1 (D), and Ptch (E) expression (See FIGS. 5C-5E).
(§6) M2 cells were pre-treated for 2 h with 5 μM LY, 2.5 μM Wm, or vehicle followed by treatment with 5 μM SS or control vehicle for 48 h. RNA was isolated and analyzed for Nkd2 (FIG. 7E) and Wif-1 (FIG. 7F) expression.

[9] = system: Naked Cuticle 2 (Nkd2) mRNA expression; format: cell-based; details: M2 cells pre-treated 2 h with inhibitor, then 5 μM SS for 48 h
Description: as §2, §3, §4, §5, §6

[10] = M210B4, 72 h, read-out: Fold Induction in alkaline phosphatase activity compared to control untreated cells
[11] = M210B4, 72 h, read-out: Fold Induction in alkaline phosphatase activity over control untreated cells

Question: How did the Osteoinductive property (marrow stromal cells) turn out when `C=C(C)CCC[C@](C)(O)[C@H]1CC[C@H]2[C@@H]3C[C@H](O)[C@H]4C[C@@H](O)CC[C@]4(C)[C@H]3CC[C@@]21C` [Oxy49, (3S,5S,6S,8R,9S,10R,13S,14S,17S)-17-((S)-2-Hydroxy-6-methylhept-6-en-2-yl)-10,13-dimethylhexadecahydro-1H-cyclopenta[a]phenanthrene-3,6-diol] was run?
Answer: osteoinductive

Question: What about the BSP expression [1] of the same molecule?
Answer: induce BSP expression

Question: What about the “Mineralization (45Ca incorporation)” value ([2]; M2-10B4 cells treated for 14 days) of the same molecule?
Answer: increased mineralization

Question: What about the fold induction at 2.5 µM [3, 10] of the same molecule?
Answer: 170

Question: And the fold induction at 5 µM [3, 10]?
Answer: 204

Question: What about the fold induction at 1.25 µM [3, 11] of the same molecule?
Answer: 46

Question: And the fold induction at 2.5 µM [3, 11]?
Answer: 68

Question: Which “Inhibition of oxysterol-induced hedgehog pathway activation” value [4] does the source give for `COC[C@H]1OC(=O)c2coc3c2[C@@]1(C)C1=C(C3=O)[C@@H]2CCC(=O)[C@@]2(C)C[C@H]1OC(C)=O` [Wm, wortmannin] here?
Answer: did not inhibit

B1: Dkk-1: recombinant mouse Dickkopf related protein 1; LRP5/6 inhibitor, Wnt signaling inhibitor (protein, UniProt O54908 32-272, looked up)
Dickkopf-related protein 1: TLNSVLINSNAIKNLPPPLGGAGGQPGSAVSVAPGVLYEGGNKYQTLDNYQPYPCAEDEECGSDEYCSSPSRGAAGVGGVQICLACRKRRKRCMRHAMCCPGNYCKNGICMPSDHSHFPRGEIEESIIENLGNDHNAAAGDGYPRRTTLTSKIYHTKGQEGSVCLRSSDCAAGLCCARHFWSKICKPVLKEGQVCTKHKRKGSHGLEIFQRCYCGEGLACRIQKDHHQASNSSRLHTCQRH
Question: What does the source list for B1?
Answer: Inhibition of oxysterol-induced Patched (Ptch) mRNA expression [5]: did not inhibit; Inhibition of oxysterol (SS)-induced OCN mRNA expression [6]: did not inhibit; Inhibition of oxysterol-induced Runx2 DNA binding activity [7]: did not inhibit; Inhibition of oxysterol-induced mineralization (45Ca incorporation) ([2]; M2 cells pre-treated 2 h with inhibitor, then SS for 12-14 days): Complete and below baseline level inhibition; Inhibition of oxysterol-induced Wif-1 expression [8]: only minimally inhibited; Inhibition of oxysterol-induced Nkd2 expression [9]: almost completely inhibited; Inhibition of BMP-2-induced ALP activity ([3]; M2 cells pre-treated 2 h with 1 or 2 μg/ml Dkk-1, then 50 ng/ml BMP-2 for 3 days): only significantly inhibited by using the higher concentration; Inhibition of Shh-induced ALP activity ([3]; M2 cells pre-treated 2 h with inhibitor, then 200 ng/ml Shh for 3 days): partially inhibited; Inhibition of oxysterol-induced ALP activity ([3]; M2 cells pre-treated 2 h with inhibitor, then 2.5 μM SS for 3 days): partial but significant inhibition; ALP activity, agent alone ([3]; M2 cells, Dkk-1 1 or 2 μg/ml without oxysterol): no observed effect
